Results reported in the supplement of paper PMC9732359.
± gives the uncertainty stated by the source.

Experiment: protein stability index of a GFP-peptide fusion (yeast GPS) (PSI 1-4); higher = more stable; sorted into four equal gates, so the index is relative within each strain
Outline: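 The protein stability index of a peptide was calculated by multiplying its read frequency in each gate by that gate's number and adding the products. The peptides were tiled 17-residue stretches of yeast proteins, fused downstream of GFP on a Cherry-expressing plasmid and carried in yeast as a pooled library. Mid-log cultures in leucine-free medium were sorted into four equal gates by GFP/Cherry ratio, and each gate's plasmids were PCR-amplified and Illumina-sequenced.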

Sequence	protein stability index (doa10∆)	protein stability index (pdr5∆)	protein stability index (san1∆)	protein stability index (ubr1∆)
LQEKEQLYFKKKVNYKV [ISW2]	2.96 ± 0.15	3.23 ± 0.15	3.26 ± 0.23	3.48 ± 0.12
LDPALLRPGRIDRKVEF [RPT1]	–	3.07 ± 0.28	3.34 ± 0.068	–
DEINTAQDKWHLLPAFL [RET1]	3.51 ± 0.16	3.31 ± 0.13	3.29 ± 0.07	–
YNMYDAYGNWFNGLKPL [PRP8]	2.93 ± 0.06	3.36 ± 0.093	2.9 ± 0.11	3.13 ± 0.048
PALIRPGRIDRKILFEN [RPT2]	–	2.21 ± 0.16	2.12 ± 0.2	2.58 ± 0.17
WFCPCHGSHYDISGRIR [RIP1]	–	2.31 ± 0.18	2.64 ± 0.25	–
GRGGSGWKPYYKLFIWL [YML031W/NDC1]	1.5 ± 0.055	1.78 ± 0.052	1.41 ± 0.089	1.31 ± 0.049
IAKATKEFKGIKVTVQL [RPL12A]	–	–	–	3.35 ± 0.18
TRFKAVVVVGDSNGHVG [RPS2]	1.87 ± 0.05	1.96 ± 0.064	1.84 ± 0.11	1.99 ± 0.043
ANGIINVKEITEKLKIS [SMC3]	2.81 ± 0.12	2.64 ± 0.099	2.75 ± 0.14	2.9 ± 0.06
WNWAKQSLLSLYFEIIH [FAS2]	1.7 ± 0.06	1.46 ± 0.057	1.76 ± 0.15	1.4 ± 0.072
VVERHLEDGDVVLFNRQ [RPO31]	3.41 ± 0.079	3.32 ± 0.077	3.57 ± 0.069	3.38 ± 0.083
VTFIFGELKRGNESVKP [MED11]	3.43 ± 0.17	3.12 ± 0.077	2.97 ± 0.1	2.98 ± 0.15
TEQFCATLNYIDKNHGF [SRB7]	2.26 ± 0.055	2.99 ± 0.061	3.2 ± 0.057	2.47 ± 0.052
CNEEQTLEAKIGGLLSK [RPO31]	3.16 ± 0.059	3.25 ± 0.059	2.99 ± 0.052	2.91 ± 0.05
SIQDTSTVAKNVSFVLP [YCG1]	3.21 ± 0.11	2.92 ± 0.074	3.29 ± 0.08	3.04 ± 0.054
HFVQEEPLAFYLEESFT [RGR1]	2.32 ± 0.044	2.43 ± 0.039	2.67 ± 0.04	2.69 ± 0.031
HPTVVDAIDNSDEITQD [IRR1]	3.22 ± 0.093	3.17 ± 0.071	3.23 ± 0.068	3.15 ± 0.052
PTMYTRLCICSGMLFEM [SIN4]	1.29 ± 0.041	1.28 ± 0.041	1.39 ± 0.08	1.44 ± 0.033
LNVVLDDAMEINGEDPA [SMX2]	3.35 ± 0.067	3.31 ± 0.07	3.46 ± 0.039	3.2 ± 0.067
PSMMAPLRDNGLLDESP [YML031W/NDC1]	–	2.79 ± 0.29	–	3.35 ± 0.11
FLKVKGLVKQHLDSFNY [RET1]	3.09 ± 0.17	3.18 ± 0.1	2.78 ± 0.29	2.94 ± 0.19
ENDTTLVKTKELIKNYI [FAS1]	3.04 ± 0.13	2.85 ± 0.15	2.83 ± 0.13	2.68 ± 0.058
ELKKYMDKKILLNINGS [SMX2]	1.88 ± 0.059	2.25 ± 0.062	2 ± 0.094	2 ± 0.045
SIGYETELKKITDKTIK [IRR1]	3.06 ± 0.07	3.12 ± 0.066	2.99 ± 0.062	3 ± 0.082
YDSRGVGEMKLLKKKDD [YLR335W/NUP2]	2.51 ± 0.098	2.64 ± 0.17	2.52 ± 0.1	2.6 ± 0.17

Sequence	protein stability index (doa10∆)	protein stability index (pdr5∆)	protein stability index (san1∆)	protein stability index (ubr1∆)
DSFTMPNISHSNIDYQT [SNF2]	2.4 ± 0.088	2.12 ± 0.1	2.49 ± 0.13	2.41 ± 0.072
DNKEKDFELEISWCSLS [PRE10]	3.54 ± 0.12	3.13 ± 0.14	2.87 ± 0.13	3.13 ± 0.088
MNVTPLDELQWKSPEWI [MED6]	3.1 ± 0.13	3.14 ± 0.1	3.19 ± 0.061	3.37 ± 0.21
DEHNELMRQALAIKDSK [RPO21]	2.61 ± 0.05	2.93 ± 0.063	2.29 ± 0.058	2.91 ± 0.044
DNGGTILGIAGEDFAVL [PRE7]	3.46 ± 0.099	3.08 ± 0.13	3.34 ± 0.14	3.47 ± 0.052
TIHAKRKIVFRCSECIK [RPN4]	2.39 ± 0.056	2.73 ± 0.066	2.15 ± 0.11	2.59 ± 0.056
KWDNQSASRAKNMPVIY [RGR1]	2.86 ± 0.13	2.41 ± 0.12	–	3.39 ± 0.16
SSPLGFEETKLSTTPTK [SIR4]	2.57 ± 0.053	2.71 ± 0.063	2.6 ± 0.054	2.67 ± 0.058
KVCECVCMHCGKLLLDE [RPO21]	2.96 ± 0.082	2.97 ± 0.073	2.88 ± 0.087	2.96 ± 0.047
EQHEEKAAEGEEKEEEN [QCR6]	3.25 ± 0.12	2.92 ± 0.18	2.98 ± 0.23	3.23 ± 0.079
AAFKDIAKRQFKEILTV [RRP40]	2.27 ± 0.051	2.54 ± 0.062	2.58 ± 0.062	2.55 ± 0.05
RVRAESLHSNSFSLTVS [YJL039C/NUP192]	1.74 ± 0.066	1.76 ± 0.072	1.43 ± 0.17	1.75 ± 0.064
KPAFSFGATTNDDKKTE [YJL041W/NSP1]	2.92 ± 0.099	3.07 ± 0.067	3.01 ± 0.058	2.89 ± 0.045
KKMDDYIHRIGRTGRAA [PRP28]	3.17 ± 0.1	3.28 ± 0.092	3.27 ± 0.045	3.35 ± 0.07
NYIPGNPLVTPASIVPE [COB]	1.81 ± 0.068	2.36 ± 0.071	2.42 ± 0.1	2.56 ± 0.086
LIQDLLHRLTPKNVKGE [RPN1]	3.44 ± 0.25	3.27 ± 0.11	3.51 ± 0.21	3.01 ± 0.14
DTQTFSVLLQQLLTPGS [YGL172W/NUP49]	1.31 ± 0.13	1.43 ± 0.095	1.36 ± 0.1	1.48 ± 0.058
VTDNKTPEMNVTNNVEE [TAF14]	3.28 ± 0.17	3.27 ± 0.12	3.35 ± 0.13	3.2 ± 0.17
KDVAKPTGPKTAIDKNG [FAS2]	3.31 ± 0.18	3.04 ± 0.11	3.06 ± 0.074	3.19 ± 0.1
YGTENKDGEDIIFNYVP [CSL4]	3.3 ± 0.14	3.21 ± 0.1	2.92 ± 0.085	3.12 ± 0.065
KSKLFEWKSEFVVPTFG [SNM1]	1.57 ± 0.058	1.63 ± 0.067	2.6 ± 0.08	1.32 ± 0.067
IYRTTRQDGSYTYHSTN [ARP9]	2.61 ± 0.08	2.74 ± 0.083	2.27 ± 0.093	2.53 ± 0.058
RLSNEMHALKNRSEQNG [RGR1]	3.32 ± 0.12	3.25 ± 0.17	3.09 ± 0.16	2.9 ± 0.12
FLNDVIPTTKNLRLLVE [DLS1]	3.28 ± 0.091	3.16 ± 0.11	2.88 ± 0.081	3.47 ± 0.087
MLGHYLGEFSITYTPVR [RPS15]	2.27 ± 0.19	2.83 ± 0.073	2.04 ± 0.16	2.86 ± 0.18
WLYVYETPNQDATYDSA [RPN6]	2.62 ± 0.075	2.75 ± 0.067	2.67 ± 0.068	2.49 ± 0.055
